Measured values: article PMC7418988, “IgaA negatively regulates the Rcs Phosphorelay via contact with the RcsD Phosphotransfer Protein” (PLoS Genetics, 2020)

B1: IgaA fused to the T18 or the T25 fragment of adenylate cyclase (natural protein, E. coli, UniProt P45800 1-711, looked up)
chain: MSTIVIFLAALLACSLLAGWLIKVRSRRRQLPWTNAFADAQTRKLTPEERSAVENYLESLTQVLQVPGPTGASAAPISLALNAESNNVMMLTHAITRYGISTDDPNKWRYYLDSVEVHLPPFWEQYINDENTVELIHTDSLPLVISLNGHTLQEYMQETRSYALQPVPSTQASIRGEESEQIELLNIRKETHEEYALSRPRGLREALLIVASFLMFFFCLITPDVFVPWLAGGALLLLGAGLWGLFAPPAKSSLREIHCLRGTPRRWGLFGENDQEQINNISLGIIDLVYPAHWQPYIAQDLGQQTDIDIYLDRHVVRQGRYLSLHDEVKNFPLQHWLRSTIIAAGSLLVLFMLLFWIPLDMPLKFTLSWMKGAQTIEATSVKQLADAGVRVGDTLRISGTGMCNIRTSGTWSAKTNSPFLPFDCSQIIWNDARSLPLPESELVNKATALTEAVNRQLHPKPEDESRVSASLRSAIQKSGMVLLDDFGDIVLKTADLCSAKDDCVRLKNALVNLGNSKDWDALVKRANAGKLDGVNVLLRPVSAESLDNLVATSTAPFITHETARAAQSLNSPAPGGFLIVSDEGSDFVDQPWPSASLYDYPPQEQWNAFQKLAQMLMHTPFNAEGIVTKIFTDANGTQHIGLHPIPDRSGLWRYLSTTLLLLTMLGSAIYNGVQAWRRYQRHRTRMMEIQAYYESCLNPQLITPSESLIE
notes: IgaA (E. coli homolog, gene yrfF), five-pass inner membrane protein; Two fusions of the same protein, each chain with ONE of the two tags: T18 (pEAW1) or T25 (pEAW2); also called YrfF; IgaA-T18; source: bacterial two-hybrid (BACTH) fusion, expressed from a plasmid in E. coli BTH101; not shown: T18 fragment of Bordetella adenylate cyclase (Cya), C-terminal, kept; T25 fragment of Bordetella …
B2: RcsD fused to the T25 or the T18 fragment of adenylate cyclase (natural protein, E. coli, UniProt P39838 1-890, looked up)
chain: MRQKETTATTRFSLLPGSITRFFLLLIIVLLVTMGVMVQSAVNAWLKDKSYQIVDITHAIQKRVDNWRYVTWQIYDNIAATTSPSSGEGLQETRLKQDVYYLEKPRRKTEALIFGSHDNSTLEMTQRMSTYLDTLWGAENVPWSMYYLNGQDNSLVLISTLPLKDLTSGFKESTVSDIVDSRRAEMLQQANALDERESFSNMRRLAWQNGHYFTLRTTFNQPGHLATVVAFDLPINDLIPPGMPLDSFRLEPDATATGNNDNEKEGTDSVSIHFNSTKIEISSALNSTDMRLVWQVPYGTLLLDTLQNILLPLLLNIGLLALALFGYTTFRHFSSRSTENVPSTAVNNELRILRAINEEIVSLLPLGLLVHDQESNRTVISNKIADHLLPHLNLQNITTMAEQHQGIIQATINNELYEIRMFRSQVAPRTQIFIIRDQDREVLVNKKLKQAQRLYEKNQQGRMIFMKNIGDALKEPAQSLAESAAKLNAPESKQLANQADVLVRLVDEIQLANMLADDSWKSETVLFSVQDLIDEVVPSVLPAIKRKGLQLLINNHLKAHDMRRGDRDALRRILLLLMQYAVTSTQLGKITLEVDQDESSEDRLTFRILDTGEGVSIHEMDNLHFPFINQTQNDRYGKADPLAFWLSDQLARKLGGHLNIKTRDGLGTRYSVHIKMLAADPEVEEEEERLLDDVCVMVDVTSAEIRNIVTRQLENWGATCITPDERLISQDYDIFLTDNPSNLTASGLLLSDDESGVREIGPGQLCVNFNMSNAMQEAVLQLIEVQLAQEEVTESPLGGDENAQLHASGYYALFVDTVPDDVKRLYTEAATSDFAALAQTAHRLKGVFAMLNLVPGKQLCETLEHLIREKDVPGIEKYISDIDSYVKSLL
notes: RcsD, phosphotransfer protein of the Rcs phosphorelay, inner membrane protein, 890 aa; Two fusions of the same protein, each chain with ONE of the two tags: T25 (pEAW8) or T18 (pEAW7); also called RcsD-T25; RcsD-T18; source: bacterial two-hybrid (BACTH) fusion, expressed from a plasmid in E. coli BTH101; not shown: T25 fragment of Bordetella adenylate cyclase (Cya), C-terminal, kept; T18 fragment …

Experiments:
[1] = biological target: B2; experiment: two-hybrid; bacterial adenylate cyclase two-hybrid (BACTH): T18 and T25 fragments fused C-terminally to the two proteins, two plasmids in cyaA deficient E. coli BTH101; beta-galactosidase activity (Miller units) against fusion plus empty cognate vector as background; threshold for reliable interaction 4x over background; IgaA/RcsD also tested in rcsB, rcsC, rcsF and rcsD mutant hosts; in the rows the T25 fusion is …; details: partners not purified
[2] = biological target: B1; experiment: as above; details: partners not purified

| Binder | beta-galactosidase activity [1] | beta-galactosidase activity, fold over either fusion paired with an empty cognate vector [1] | beta-galactosidase activity, fold over either fusion paired with an empty cognate vector [2] | beta-galactosidase level, fold over the single construct (background) controls [2] |
| --- | --- | --- | --- | --- |
| B1 | ≥ 1000 Miller units | ~20 fold | – | – |
| B2 | – | – | ~20 fold | > 30 fold |
